Results on one variant are retold here after publication PMC9331606 (2022).

Sequences and labels used below:
B1: Halo-tagged human cytomegalovirus immediate early 1 protein (hIE1) [human cytomegalovirus (HCMV)] / NanoLuciferase-tagged human promyelocytic leukemia protein (hPML) [human] (parent complex)
chain 1: MESSAKRKMDPDNPDEGPSSKVPRPETPVTKATTFLQTMLRKEVNSQLSLGDPLFPELAEESLKTFEQVTEDCNENPEKDVLAELVKQIKVRVDMVRHRIKEHMLKKYTQTEEKFTGAFNMMGGCLQNALDILDKVHEPFEEMKCIGLTMQSMYENYIVPEDKREMWMACIKELHDVSKGAANKLGGALQAKARAKKDELRRKMMYMCYRNIEFFTKNSAFPKTTNGCSQAMAALQNLPQCSPDEIMAYAQKIFKILDEERDKVLTHIDHIFMDILTTCVETMCNEYKVTSDACMMTMYGGISLLSEFCRVLCCYVLEETSVMLAKRPLITKPEVISVMKRRIEEICMKVFAQYILGADPLRVCSPSVDDLRAIAEESDEEEAIVAYTLATAGVSSSDSLVSPPESPVPATIPLSSVIVAENSDQEESEQSDEEEEEGAQEEREDTVSVKSEPVSEIEEVAPEEEEDGAEEPTASGGKSTHPMVTRSKADQ
chain 2: MEPAPARSPRPQQDPARPQEPTMPPPETPSEGRQPSPSPSPTERAPASEEEFQFLRCQQCQAEAKCPKLLPCLHTLCSGCLEASGMQCPICQAPWPLGADTPALDNVFFESLQRRLSVYRQIVDAQAVCTRCKESADFWCFECEQLLCAKCFEAHQWFLKHEARPLAELRNQSVREFLDGTRKTNNIFCSNPNHRTPTLTSIYCRGCSKPLCCSCALLDSSHSELKCDISAEIQQRQEELDAMTQALQEQDSAFGAVHAQMHAAVGQLGRARAETEELIRERVRQVVAHVRAQERELLEAVDARYQRDYEEMASRLGRLDAVLQRIRTGSALVQRMKCYASDQEVLDMHGFLRQALCRLRQEEPQSLQAAVRTDGFDEFKVRLQDLSSCITQGKDAAVSKKASPEAASTPRDPIDVDLPEEAERVKAQVQALGLAEAQPMAVVQSVPGAHPVPVYAFSIKGPSYGEDVSNTTTAQKRKCSQTQCPRKVIKMESEEGKEARLARSSPEQPRPSTSKAVSPPHLDGPPSPRSPVIGSEVFLPNSNHVASGAGEAEERVVVISSSEDSDAENSSSRELDDSSSESSDLQLEGPSTLRVLDENLADPQAEDRPLVFFDLKIDNETQKISQLAAVNRESKFRVVIQPEAFFSIYSKAVSLEVGLQHFLSFLSSMRRPILACYKLWGPGLPNFFRALEDINRLWEFQEAISGFLAALPLIRERVPGASSFKLKNLAQTYLARNMSERSAMAAVLAMRDLCRLLEVSPGPQLAQHVYPFSSLQCFASLQPLVQAAVLPRAEARLLALHNVSFMELLSAHRRDRQGGLKKYSRYLSLQTTTLPPAQPAFNLQALGTYFEGLLEGPALARAEGVSTPLAGRGLAERASQQS

Variants of B1 are the subject of this assay. The assay can be described thus: NanoBRET; HEK293T cells transfected 24 h; 4 h incubation with Halo ligand; detection time 5 s at 618 nm and 448 nm; parent: 23; read off a plot. A general note: Bioluminescence resonance energy transfer reports proximity on the nanometre scale.
In the case of chain 1 L174P, the response was around 1.2 mBU.
